B1: CD8SP-BCMA-FHVH-93-G4S-TCR-Vg9-F-P2A-IgHSP-CD20-vHH2-HCD25-G4S-TCR-Vd2-F-F2A-PAC (protein)
chain: MALPVTALLLPLALLLHAARPACEVQLLESGGGLIQPGGSLRLSCAASGFTFSSHAMTWVRQAPGKGLEWVSAISGSGDYTHYADSVKGRFTISRDNSKNTVYLQMNSLRAEDSAVYYCAKDEDGGSLLGHRGQGTLVTVSSGTGGGGSGGGGSGGGGSEFAGHLEQPQISSTKTLSKTARLECVVSGITISATSVYWYRERPGEVIQFLVSISYDGTVRKESGIPSGKFEVDRIPETSTSTLTIHNVEKQDIATYYCALWEAQQELGKKIKVFGPGTKLIITDKQLDKQLDADVSPKPTIFLPSIAETKLQKAGTYLCLLEKFFPDVIKIHWQEKKSNTILGSQEGNTMKTNDTYMKFSWLTVPEKSLDKEHRCIVRHENNKNGVDQEIIFPPIKTDVITMDPKDNCSKDANDTLLLQLTNTSAYYMYLLLLLKSVVYFAIITCCLLRRTAFCCNGEKSRAKRSGSGATNFSLLKQAGDVEENPGPTSATMDWIWRILFLVGAATGAHSGPQVQLQESGGGLAQAGGSLRLSCAASGRTFSMGWFRQAPGKEREFVAAITYSGGSPYYASSVRGRFTISRDNAKNTVYLQMNSLKPEDTAVYYCAANPTYGSDWNAENWGQGTQVTVSSGSGGGGSGGGGSGGGGSFEAIELVPEHQTVPVSIGVPATLRCSMKGEAIGNYYINWYRKTQGNTMTFIYREKDIYGPGFKDNFQGDIDIAKNLAVLKILAPSERDEGSYYCACDTLGMGGEYTDKLIFGKGTRVTVEPRSQPHTKPSVFVMKNGTNVACLVKEFYPKDIRINLVSSKKITEFDPAIVISPSGKYNAVKLGKYEDSNSVTCSVQHDNKTVHSTDFEVKTDSTDHVKPKETENTKQPSKSCHKPKAIVHTEKVNMMSLTVLGLRMLFAKTVAVNFLLTAKLFFLRAKRSGSGVKQTLNFDLLKLAGDVESNPGPSRAHMTEYKPTVRLATRDDVPRAVRTLAAAFADYPATRHTVDPDRHIERVTELQELFLTRVGLDIGKVWVADDGAAVAVWTTPESVEAGAVFAEIGPRMAELSGSRLAAQQQMEGLLAPHRPKEPAWFLATVGVSPDHQGKGLGSAVVLPGVEAAERAGVPAFLETSAPRNLPFYERLGFTVTADVEVPEGPRTWCMTRKPGA
B2: 22131 (protein)
chain: MALPVTALLLPLALLLHAARPACEVQLLESGGGLIQPGGSLRLSCAASGFTFSSHAMTWVRQAPGKGLEWVSAISGSGDYTHYADSVKGRFTISRDNSKNTVYLQMNSLRAEDSAVYYCAKDEDGGSLLGHRGQGTLVTVSSGTGGGGSGGGGSGGGGSEFDIQMTQSPSSLSASVGDRVTITCKASDHINNWLAWYQQKPGQAPKLLIYGATTLETGVPSRFSGSGSGTDYTLTISSLQPEDFATYYCQQSWNTPWTFGQGTKLEIKRLEDLKNVFPPEVAVFEPSKAEIAHTQKATLVCLATGFYPDHVELSWWVNGKEVHSGVCTDPQPLKEQPALNDSRYCLSSRLRVSATFWQNPRNHFRCQVQFYGLSENDEWTQDRAKPVTQIVSAEAWGRADCGITSASYHQGVLSATILYEILLGKATLYAVLVSALVLMAMVKRKDSRGRAKRSGSGATNFSLLKQAGDVEENPGPTSATMDWIWRILFLVGAATGAHSGPQVQLQESGGGLAQAGGSLRLSCAASGRTFSMGWFRQAPGKEREFVAAITYSGGSPYYASSVRGRFTISRDNAKNTVYLQMNSLKPEDTAVYYCAANPTYGSDWNAENWGQGTQVTVSSGSGGGGSGGGGSGGGGSFEQVQLQQPGAELVKPGASVKMSCKASGYAFSSYWINWMKQKPGQGLEWIGQIYPGDGDTNYNGKFKGRATLTADTSSSTAYMQLSSLTSEDSAVYFCARSITTVVGCAMDYWGQGTSVTVSSTRIQNPDPAVYQLRDSKSSDKSVCLFTDFDSQTNVSQSKDSDVYITDKCVLDMRSMDFKSNSAVAWSNKSDFACANAFNNSIIPEDTFFPSSDVPCDVKLVEKSFETDTNLNFQNLSVIGFRILLLKVAGFNLLMTLRLWSSRAKRSGSGVKQTLNFDLLKLAGDVESNPGPSRGHMTEYKPTVRLATRDDVPRAVRTLAAAFADYPATRHTVDPDRHIERVTELQELFLTRVGLDIGKVWVADDGAAVAVWTTPESVEAGAVFAEIGPRMAELSGSRLAAQQQMEGLLAPHRPKEPAWFLATVGVSPDHQGKGLGSAVVLPGVEAAERAGVPAFLETSAPRNLPFYERLGFTVTADVEVPEGPRTWCMTRKPGA
B3: 22215 (protein)
chain: MALPVTALLLPLALLLHAARPACPYINIYNAEPANPSEKNSPTQYAYGTGAVVRGAEFDIQMTQSPSSLSASVGDRVTITCKASDHINNWLAWYQQKPGQAPKLLIYGATTLETGVPSRFSGSGSGTDYTLTISSLQPEDFATYYCQQSWNTPWTFGQGTKLEIKRLEDLKNVFPPEVAVFEPSKAEIAHTQKATLVCLATGFYPDHVELSWWVNGKEVHSGVCTDPQPLKEQPALNDSRYCLSSRLRVSATFWQNPRNHFRCQVQFYGLSENDEWTQDRAKPVTQIVSAEAWGRADCGITSASYHQGVLSATILYEILLGKATLYAVLVSALVLMAMVKRKDSRGRAKRSGSGATNFSLLKQAGDVEENPGPTSATMDWIWRILFLVGAATGAHSGPQVQLQESGGGLAQAGGSLRLSCAASGRTFSMGWFRQAPGKEREFVAAITYSGGSPYYASSVRGRFTISRDNAKNTVYLQMNSLKPEDTAVYYCAANPTYGSDWNAENWGQGTQVTVSSGSGGGGSGGGGSGGGGSFEQVQLQQPGAELVKPGASVKMSCKASGYAFSSYWINWMKQKPGQGLEWIGQIYPGDGDTNYNGKFKGRATLTADTSSSTAYMQLSSLTSEDSAVYFCARSITTVVGCAMDYWGQGTSVTVSSTRIQNPDPAVYQLRDSKSSDKSVCLFTDFDSQTNVSQSKDSDVYITDKCVLDMRSMDFKSNSAVAWSNKSDFACANAFNNSIIPEDTFFPSSDVPCDVKLVEKSFETDTNLNFQNLSVIGFRILLLKVAGFNLLMTLRLWSSRAKRSGSGVKQTLNFDLLKLAGDVESNPGPSRGHMTEYKPTVRLATRDDVPRAVRTLAAAFADYPATRHTVDPDRHIERVTELQELFLTRVGLDIGKVWVADDGAAVAVWTTPESVEAGAVFAEIGPRMAELSGSRLAAQQQMEGLLAPHRPKEPAWFLATVGVSPDHQGKGLGSAVVLPGVEAAERAGVPAFLETSAPRNLPFYERLGFTVTADVEVPEGPRTWCMTRKPGA

Legend:
Assay type in all cases: cell-based
[1] = test system: RAJI cells; assay: JNG assay, co-culture with RAJI cells; details: for NFAT-GFP ASSAY: Raji: JNG cells expressing construct, co-culture with Raji
Outline: (§1)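 Jurkat NFAT-GFP (JNG) cells stably transduced with SARs by lentivirus, with drug selection where the construct carried a resistance gene, then co-cultured with target cells at E:T ~1:2 for ~4–18 h. % GFP-positive cells measured by FACS against parental JNG; +/- to 5+ correspond to ~5–50% GFP-positive.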

[2] = test system: RAJI-CD19-KO cells; assay: JNG assay, co-culture with RAJI-CD19-KO cells; details: for NFAT-GFP ASSAY: Raji-CD19-KO: co-culture with Raji-CD19-KO
Protocol: Cellular supernatant is collected and assayed for the induction of cytokines (e.g., IL2).
JNG (Jurkat cells expressing EGFP under an NFAT promoter) were infected with lentiviral vectors encoding different single chain and multi-chain SARs by spinfection in the presence of 8 µg/ml of Polybrene® (Sigma, Catalog no. H9268). The Jurkat-NFAT-GFP cells are engineered in such a way that the IL-2 promoter, which carries NFAT binding sites, is cloned upstream of the GFP gene. These cells have been used to study signaling via TCR and CAR. The different SARs were stably expressed in Jurkat NFAT-GFP cells by lentiviral mediated gene transfer, followed by selection with puromycin or blasticidin. No drug selection was used in case the construct lacked an antibiotic resistance gene. The SAR-expressing Jurkat-NFAT-GFP cells were cocultured with the target cells at E:T ratio of approximately 1:2 for approximately 4 hours to 18 hours. When the interaction between SIRs and their target antigen results in activation of the NFAT pathway, GFP expression is induced. […] GFP expression was monitored by FACS analysis. The Jurkat-NFAT-GFP (parental) cells were used as control. The structure of different constructs can be determined based on their names. […] The sequence of the other constructs in the table can be similarly determined from their names and by referring to the different Tables of this disclosure that provide the names and SEQ ID NO of the different modules. Alternatively, the composition and modular architecture of the different SAR constructs can be determined from their sequences by bioinformatics tools, including using nucleic acid and amino acids homology searches. A SAR is considered positive in the assay in case the SAR expressing Jurkat-NFAT-GFP cells show greater % GFP positive cells when cultured with the target cell line as compared to parental Jurkat-NFAT-GFP cells. […] In general, the number +/-, +, 2+, 3+, 4+, 5+ refer to approximately 5%, 10%, 20%, 30%, 40% and 50% GFP positive cells. The % of GFP induction in the above assay is dependent not only the relative strength of the SAR but also, among other factors, on the relative level of expression of the SAR in the JNG cells and the relative level of expression of the target antigen in the target cell line. To control for the difference in gene transduction efficiency of the different SAR constructs, the experiment was conducted with JNG cells transduced with SAR constructs co-expressing a drug resistance gene (e.g., puromycin or PAC) followed by drug selection to generate a stable population of SAR-expressing cells. It is to be noted that the drug resistance gene (e.g., PAC) in the SAR constructs is optional and in vivo studies were conducted with SAR constructs lacking the PAC gene.

[3] = test system: L363 cells; assay: JNG assay, co-culture with L363 cells
Outline: as §1

Molecule | GFP induction / activity ([1]; co-culture with RAJI cells) | GFP induction / activity ([2]; co-culture with RAJI-CD19-KO cells) | GFP induction / activity ([3]; co-culture with L363 cells) | NFAT-GFP ASSAY: Raji [1] | NFAT-GFP ASSAY: Raji-CD19-KO [2] | NFAT-GFP ASSAY: L363 ([3]; co-culture with L363)
B1 | robust induction of GFP | robust induction of GFP | robust induction of GFP | – | – | –
B2 | – | – | – | 4+ (refer to approximately 5%, 10%, 20%, 30%, 40% and 50% GFP positive cells) | 5+ (refer to approximately 5%, 10%, 20%, 30%, 40% and 50% GFP positive cells) | 5+ (refer to approximately 5%, 10%, 20%, 30%, 40% and 50% GFP positive cells)
B3 | – | – | – | Raji (3+), Raji-CD19-KO (3+) (refer to approximately 5%, 10%, 20%, 30%, 40% and 50% GFP positive cells) | Raji (3+), Raji-CD19-KO (3+) (refer to approximately 5%, 10%, 20%, 30%, 40% and 50% GFP positive cells) | –

Reference: US20230212319A1, “NOVEL ANTIGEN BINDING DOMAINS AND SYNTHETIC ANTIGEN RECEPTORS INCORPORATING THE SAME” (University of Southern California, priority 2020, published 2023)
